B1: G2 and S phase-expressed protein 1 (Homo sapiens), Q9NYZ3 (parent)
chain: MEGGGGRDEPSACRAGDVNMDDPKKEDILLLADEKFDFDLSLSSSSANEDDEVFFGPFGHKERCIAASLELNNPVPEQPPLPTSESPFAWSPLAGEKFVEVYKEAHLLALHIESSSRNQAAQAAKPEDPRSQGVERFIQESKLKINLFEKEKEMKKSPTSLKRETYYLSDSPLLGPPVGEPRLLASSPALPSSGAQARLTRAPGPPHSAHALPRESCTAHAASQAATQRKPGTKLLLPRAASVRGRSIPGAAEKPKKEIPASPSRTKIPAEKESHRDVLPDKPAPGAVNVPAAGSHLGQGKRAIPVPNKLGLKKTLLKAPGSTSNLARKSSSGPVWSGASSACTSPAVGKAKSSEFASIPANSSRPLSNISKSGRMGPAMLRPALPAGPVGASSWQAKRVDVSELAAEQLTAPPSASPTQPQTPEGGGQWLNSSCAWSESSQLNKTRSIRRRDSCLNSKTKVMPTPTNQFKIPKFSIGDSPDSSTPKLSRAQRPQSCTSVGRVTVHSTPVRRSSGPAPQSLLSAWRVSALPTPASRRCSGLPPMTPKTMPRAVGSPLCVPARRRSSEPRKNSAMRTEPTRESNRKTDSRLVDVSPDRGSPPSRVPQALNFSPEESDSTFSKSTATEVAREEAKPGGDAAPSEALLVDIKLEPLAVTPDAASQPLIDLPLIDFCDTPEAHVAVGSESRPLIDLMTNTPDMNKNVAKPSPVVGQLIDLSSPLIQLSPEADKENVDSPLLKF

The first assay covers variants of B1. Conditions: with plk1_human PLK1, P53350.
Sequence of plk1_human PLK1, P53350 (P53350 whole entry): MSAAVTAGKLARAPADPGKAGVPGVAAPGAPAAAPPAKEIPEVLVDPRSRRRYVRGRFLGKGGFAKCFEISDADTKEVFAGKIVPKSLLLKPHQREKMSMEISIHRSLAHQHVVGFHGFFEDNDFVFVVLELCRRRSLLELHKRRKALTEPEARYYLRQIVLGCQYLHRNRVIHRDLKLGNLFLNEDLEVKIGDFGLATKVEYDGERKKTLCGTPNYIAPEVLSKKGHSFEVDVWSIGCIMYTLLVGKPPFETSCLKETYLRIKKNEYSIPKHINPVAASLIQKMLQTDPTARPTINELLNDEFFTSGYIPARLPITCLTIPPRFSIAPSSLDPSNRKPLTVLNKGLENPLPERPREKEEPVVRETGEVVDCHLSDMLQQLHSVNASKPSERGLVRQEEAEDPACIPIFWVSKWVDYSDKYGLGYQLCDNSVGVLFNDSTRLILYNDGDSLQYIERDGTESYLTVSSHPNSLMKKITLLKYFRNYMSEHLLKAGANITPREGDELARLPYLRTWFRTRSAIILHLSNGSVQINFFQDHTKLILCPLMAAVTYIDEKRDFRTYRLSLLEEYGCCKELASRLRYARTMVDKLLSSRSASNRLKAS
S454A: the “effect of a mutation on the interaction” value is recorded as “disrupting interaction”.

In a further assay the parent is B1. The following applies: with plk1_human PLK1, P53350. This is another data set of the same source.
For S242A, the “effect of a mutation on the interaction” value was “disrupting interaction”.

For the origin of these results see IntAct's records for PubMed 20577264.
